# Assay results from patent US10975360B2, “Process for the modification of alkanes, fatty acids and fatty alcohols” (priority 2016, dated 2021).
# B1: CYP505E3: self-sufficient cytochrome P450 monooxygenase from Aspergillus terreus, SEQ ID No 1 (protein, listed as Aspergillus terreus)
# chain: MIKETEQIPGPRPLPVVGNLFDMDLEHGLECLIRLADDFGPLFQITINGEKQIFATSQALVDELCDESRFHKAVMGGLEKLRMLASDGLFTAYHGERGWGIAHRILVPAFGPLRIRNMFEEMNDVAQQLCLKWARQGSSTSINITDDFTRLTLDTIALCTMNFRLNSFYNNETMHPFVKSMLYVLRESDIQSMLPGIANCIRVKARSRMSKHIQLMRNMARGIIQERRDQAEPVDDLLNTLLNGRDPVTGEGMSDDLIINNVITFLIAGHETTSGLLSFTFYYLLQNPHILERAQNEVDEVTGGERITVQHLGRLTYIDAILKESLRLMPTAPAFTVTPKKPEVLGGAWAIDAGQAVNVLLPVCLRDRSVFGPDADEFRPERMLEENFSKLPPNSWKPFGNGERSCIGRAFAWQEAQLVVAMVLQTFDLVPDDPSYKLRIKETLTIKPDGFRVRATLRRGQSATGLSQGSMSASGATSSVASPGPPAATGAQSNPAGGQRISFFYGSNSGTCKALAHRLASSLMGRGFTEQKLAALDTVVGNLPTDQPVIIVTTSYDGRPTDDAEEFVRWLESKRPVLQGVSYAVFGCGHHDWAKTFYRIPILIDDLMHKAGATRLTALGTANAAVSDLFSDLELWEETNLLPALREAFPPSNSSDVESSEPHQLQICVSKPRRVDMHRGLVEAKVTAVRTLTSPDSPEKRHVEFHVQGDTTWRPGDHVNILPVNPLSTVSRVLAYFQLAPDHSITVNSFNTQGLPSATPVSATELFSSFVELSQPATRKNLKALAMAAESKTDEQELIRLHDSYDALVRDKRVSVLDILERFPSISLPIGIFISMLPPLRLRTYSLSMAPSFKPSHGSLTFSVINEPAWSGNGQYLGVGSNYLASLTPGSLLYLSPRPAKDAFHLPADQFNTPIIMICAGSGLAPFMGFIQERMTWLKQGRPLAKGLLFFGCRGPHLDDLYYEELSEFEDAGVVEVHRAYSRAPDDVRAKGCRHVQHRLVTEAEAVRDHWGRNAIVYVCGSSNMARGVQTVLEEILGTLPPERYVAEIF
# Assays:
# [1] = Biotransformation of 1-hexadecanol using CFE of E. coli, Tris-HCl buffer; type: biochemical; details: 5 mmol/L substrate, 24 h
# Procedure: (§1) Expression of genes in E. coli was performed by using ZYP-5052 auto-induction medium (Table 1) with in the case of the CYP 1 mM 5-aminolevulinic acid and 0.05 mM FeCl3 added. The CYP505E3 culture was cultivated using baffled flasks and incubated at 20° C. and 180 rpm for 24 h, while the GDH, and HLADH expressing cultures were all cultivated at 25° C. and 200 rpm for 24 h. Cultures were harvested through centrifugation (6 000×g, 10 min) and 1 g (wet weight) resuspended in 2 ml, 5 ml or 10 ml Tris-HCl, Phosphate or MOPS buffer, as indicated, (pH 8, 200 mM) containing 100 mM of glucose and glycerol. CFEs were obtained by a single passage of the suspended cells through a One Shot Cell Disrupter (Constant Systems) at 207 MPa. The soluble fraction was separated from unbroken cells by centrifugation (20 000×g, 20 min).
# (§2) The biotransformation reaction mixture (BRM) consisted of CYP and GDH CFE suspensions prepared from cells in Tris-HCl buffers (1 g wet weight in 2 ml buffer) mixed in a 1:1 ratio with 0.1 mM NADPH added. Dodecanoic acid, tetradecanoic acid, hexadecanoic acid, 1-tetradecanol and 1-hexadecanol (20 μl of a 255 mM stock solution in DMSO) were added to 40 ml amber glass vials containing 1 ml BRM to give final substrate concentrations of 5 mmol·LBRM^−1. These vials were placed on an orbital shaker at 20° C., 200 rpm, oscillation amplitude 26 mm. […]
# [2] = Time course of biotransformation of 50 mM C12 fatty acid using CFE of E. coli in MOPS buffer; type: biochemical; details: 50 mM dodecanoic acid, 0.2 μM CYP
# Procedure: as §1, with “min). […]” for “min).”
# After extraction aliquots (50 μl) of ethyl acetate extracts containing both decanoic acid and tetradecanol as internal standards were methylated for GC-MS analysis while the rest of the extracts were washed with a Na2CO3 (5% w/v) solution to remove the fatty acids. The washed ethyl acetate extracts were also analysed by GC-MS and the δ-dodecalactone and γ-dodecalactone concentrations determined from a standard curve.
# [3] = Biotransformation of 1-tetradecanol using CFE of E. coli, Tris-HCl buffer; type: biochemical; details: 5 mmol/L substrate, CFE of E. coli, Tris-HCl, 24 h
# Procedure: as §1, §2
# [4] = Biotransformation of dodecanoic acid using CFE of E. coli, Tris-HCl buffer; type: biochemical; details: 5 mmol/L substrate, CFE of E. coli, Tris-HCl, 24 h
# Procedure: as §1
# (§3) The biotransformation reaction mixture (BRM) consisted of CYP and GDH CFE suspensions prepared from cells in Tris-HCl buffers (1 g wet weight in 2 ml buffer) mixed in a 1:1 ratio with 0.1 mM NADPH added. Dodecanoic acid, tetradecanoic acid, hexadecanoic acid, 1-tetradecanol and 1-hexadecanol (20 μl of a 255 mM stock solution in DMSO) were added to 40 ml amber glass vials containing 1 ml BRM to give final substrate concentrations of 5 mmol·LBRM^−1. These vials were placed on an orbital shaker at 20° C., 200 rpm, oscillation amplitude 26 mm. Vials were removed after 24 h for extraction. Biotransformations were stopped by adding 170 ul of 0.5M HCl, extracted with 2×500 μl EtOAc and subjected to GC-MS analysis. A sample of δ-dodecalactone in ethyl acetate (0.1 mM) was also methylated with TMSH and subjected to GC-MS analysis.
# [5] = Whole cell biotransformation of dodecane by CYP505s expressed in P. pastoris; type: cell-based; details: whole cells of P. pastoris
# Procedure: Precultures of P. pastoris transformants were prepared in buffered complex glycerol media (BMGY). BMGY contained: 10 g/l yeast extract, 20 g/l peptone, 3.4 g/l yeast nitrogen base, 10 g/l ammonium sulfate, 100 mM potassium phosphate (pH 6), 0.4 mg/l biotin and 1% (v/v) glycerol. Erlenmeyer flasks (500 ml) containing 50 ml BMGY media were inoculated with single colonies of 24 h old YPD-agar cultures of P. pastoris KM71 mut^s3/CYP505E3 and incubated at 30° C. and 225 rpm for 24 h. The cultures were harvested using pre-weighed centrifuge tubes at 3000 g for 5 min and stored on ice until further use.
# The main cultures for expression were prepared in buffered complex methanol media (BMMY) containing 10 g/l yeast extract, 20 g/l peptone, 3.4 g/l yeast nitrogen base, 10 g/l ammonium sulfate, 100 mM potassium phosphate (pH 6), 0.4 mg/l biotin and 0.5 or 1% (v/v) methanol. Harvested cells from precultures were resuspended in BMMY media to final concentration of 1 g WC per 40 ml (appx. 25 g/l). The resuspended cultures (100 ml) were transferred to 500 ml Erlenmeyer flasks and incubated at 25° C. and 225 rpm for 24 h. The cultures were then harvested at 3000 g for 5 min using pre-weighed centrifuge tubes.
# Different transformants of Pichia pastoris KM71 harbouring the CYP505 genes for SEQ ID Nos 1 to 7 and 9 to 12 were grown and harvested as described above. The harvested cells were resuspended to give 1 g wet cell weight in 40 ml MOPS buffer (200 mM, 100 mM glucose, 100 mM glycerol, pH 8) and 1 ml aliquots of these cell suspensions were transferred to 40 ml amber vials. Dodecane, 1-dodecanol and 1-tetradecanol were added neat to these cell suspensions to give final concentrations of 200 mM in the case of the alcohols and 1 M in the case of dodecane while in the case of dodecanoic acid 20 μl of a 500 mM stock solution (in DMSO) was added to give a final concentration of 10 mM. Transformants harbouring the CYP505 genes for SEQ ID Nos 1 to 4 were tested for the biotransformation of 1-dodecanol, 1-tetradecanol, dodecanoic acid, tetradecanoic acid and dodecane, while those harbouring the CYP505 genes for SEQ ID Nos 5 to 7 and 9 to 12 were only tested for the biotransformation of 1-dodecanol and dodecanoic acid. The biotransformations were incubated at 25° C. and 225 rpm for 24 h. Extractions were performed using ethyl acetate (500 μl×2). The extracts were analyzed using GC/MS.
# [6] = Biotransformation of tetradecanoic acid using CFE of E. coli, Tris-HCl buffer; type: biochemical; details: 5 mmol/L substrate, CFE of E. coli, Tris-HCl, 24 h
# Procedure: as §1, §3
molecule,measurement,setting,value
B1,products detected from hexadecanol (GC-MS),[1],did not allow detection of any products
same,lactone concentrations in the washed ethyl acetate samples,"[2]; Na2CO3 washed, not methylated",0.6 mmol·LBRM^−1
same,lactone concentrations in the unwashed samples,"[2]; unwashed, methylated",1.6 mmol·LBRM^−1
same,products detected from tetradecanol (GC-MS),[3],"1,7-tetradecane diol and 1,8-tetradecane diol"
same,"products identified from dodecanoic acid (GC-MS, methylated samples)",[4],δ-dodecalactone and the methyl ester of 5-hydroxy dodecanoic acid
same,products produced from dodecane (GC-MS),"[5]; 1 M dodecane, 24 h",5-dodecanol
same,ω-7 hydroxylase activity C12alk,"[5]; C12 alkane, GC-MS peak height",+++ (+++ 1 million < RA < 10 million)
same,"products identified from tetradecanoic acid (GC-MS, methylated samples)",[6],7-hydroxy tetradecanoic acid
